From patent US20130244255A1 (published 2013)

What was measured:
[1] = molecular target: T1, GPNMB (CG56972) as expressed by human cell lines (human, UniProt Q14956 23-492); assay: FACS on G361 cells
T1 construct: Endogenous or transfected full-length protein on cells (FACS, killing assays) or in cell lysates (immunoprecipitation, blot); also called native GPNMB protein
T1 sequence: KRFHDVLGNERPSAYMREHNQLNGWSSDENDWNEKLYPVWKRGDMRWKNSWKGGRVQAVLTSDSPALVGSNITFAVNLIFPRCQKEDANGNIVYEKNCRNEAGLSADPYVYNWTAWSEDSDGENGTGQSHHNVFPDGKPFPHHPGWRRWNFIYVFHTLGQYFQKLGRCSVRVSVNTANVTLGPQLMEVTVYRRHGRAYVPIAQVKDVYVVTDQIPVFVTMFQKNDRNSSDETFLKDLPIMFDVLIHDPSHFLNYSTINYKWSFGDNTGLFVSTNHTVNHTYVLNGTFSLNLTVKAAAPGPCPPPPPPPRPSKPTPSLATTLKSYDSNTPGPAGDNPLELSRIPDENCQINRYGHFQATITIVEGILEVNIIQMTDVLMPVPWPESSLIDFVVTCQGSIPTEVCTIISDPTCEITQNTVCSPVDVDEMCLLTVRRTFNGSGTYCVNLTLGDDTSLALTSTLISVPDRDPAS

[2] = molecular target: T1, GPNMB (CG56972) as expressed by human …; assay: FACS on MEWO cells
[3] = molecular target: T1, GPNMB (CG56972) as expressed by human …; assay: FACS on A2058 cells
[4] = molecular target: T1, GPNMB (CG56972) as expressed by human …; assay: FACS on UACC-62 cells
[5] = molecular target: T1, GPNMB (CG56972) as expressed by human …; assay: FACS on RPMI-7951 cells
[6] = molecular target: T1, GPNMB (CG56972) as expressed by human …; assay: FACS on SK-Mel 24 cells
[7] = molecular target: T1, GPNMB (CG56972) as expressed by human …; assay: FACS on KG-1 cells, antibody 1 ug/mL
Description: (§1) Lymphoma or leukemia derived cells were washed twice with ice-cold FACS buffer and resuspended at 1 million cells per assay tube. […] Cells were then washed 2-3 times and resuspended in 1 mL of ice-cold FACS buffer. R-PE-conjugated goat anti-human antibody at 1:100 dilution was added and cells were incubated on ice for 30 min. Cells were washed 3 times with 1 mL of ice-cold FACS buffer, fixed with 0.5-1 mL of 1% formaldehyde in PBS and analyzed by Flow Cytometry.

[8] = molecular target: T1, GPNMB (CG56972) as expressed by human …; assay: FACS on KG1a cells, antibody 1 ug/mL
Description: as §1

[9] = molecular target: T1, GPNMB (CG56972) as expressed by human …; assay: FACS on SF-268 cells, CR011 10 ug/mL
Description: (§2) Quantitative analysis of CG56972 expression on the surface of cell lines was determined by flow cytometry (FACS). […] Cells were fixed in 1% paraformaldehyde/PBS and examined on a Becton Dickinson FACSCalibur flow cytometer. Data analysis was performed with Becton Dickinson Cell Quest software version 3.3 and the geometric mean fluorescence intensity ratio (GMR) was determined for each cell type.
(§3) Geometric Mean ratios (GMR) were determined by flow cytometric analysis.

[10] = molecular target: T1, GPNMB (CG56972) as expressed by human …; assay: FACS on PL-21 cells, antibody 1 ug/mL
Description: as §1

[11] = molecular target: T1, GPNMB (CG56972) as expressed by human …; assay: FACS on THP-1 cells, antibody 1 ug/mL
Description: as §1

[12] = molecular target: T1, GPNMB (CG56972) as expressed by human …; assay: FACS on D450-MG cells, CR011 10 ug/mL
Description: as §2

[13] = molecular target: T1, GPNMB (CG56972) as expressed by human …; assay: FACS on D534-MG cells, CR011 10 ug/mL
Description: as §2

[14] = molecular target: T1, GPNMB (CG56972) as expressed by human …; assay: FACS on SW 1783 cells, CR011 10 ug/mL
Description: as §2

[15] = molecular target: T1, GPNMB (CG56972) as expressed by human …; assay: FACS on Jurkat cells, antibody 1 ug/mL
Description: as §1

[16] = molecular target: T1, GPNMB (CG56972) as expressed by human …; assay: FACS on MOLT-4 cells, antibody 1 ug/mL
Description: as §1

[17] = molecular target: T1, GPNMB (CG56972) as expressed by human …; assay: FACS on SUP-M2 cells, antibody 1 ug/mL
Description: as §1

[18] = molecular target: T1, GPNMB (CG56972) as expressed by human …; assay: FACS on U-118-MG cells, CR011 10 ug/mL
Description: as §2, §3

[19] = molecular target: T1, GPNMB (CG56972) as expressed by human …; assay: FACS on AML-193 cells, antibody 1 ug/mL
[20] = molecular target: T1, GPNMB (CG56972) as expressed by human …; assay: FACS on HUT-102 cells, antibody 1 ug/mL
[21] = molecular target: T1, GPNMB (CG56972) as expressed by human …; assay: FACS on SU-DHL-1 cells, antibody 1 ug/mL
Description: as §1

[22] = molecular target: T1, GPNMB (CG56972) as expressed by human …; assay: FACS on SU-DHL-4 cells, antibody 1 ug/mL
[23] = molecular target: T1, GPNMB (CG56972) as expressed by human …; assay: FACS on Karpas 299 cells, antibody 1 ug/mL
Description: as §1

[24] = molecular target: T1, GPNMB (CG56972) as expressed by human …; assay: FACS on XF-498, U-118-MG, SNB-78 and SF-539 cells
Description: as §2

B1: CR011 mAb 1.15.1 (IgG2) (antibody)
heavy: QVQLQESGPGLVKPSQTLSLTCTVSGGSISSFNYYWSWIRHHPGKGLEWIGYIYYSGSTYSNPSLKSRVTISVDTSKNQFSLTLSSVTAADTAVYYCARGYNWNYFDYWGQGTLVTVSSASTKGPSVFPLAPCSRSTSESTAALGCLVKDYFPEPVTVSWNSGALTSGVHTFPAVLQSSGLYSLSSVVTVPSSNFGTQTYTCNVDHKPSNTKVDKTVERKCCVECPPCPAPPVAGPSVFLFPPKPKDTLMISRTPEVTCVVVDVSHEDPEVQFNWYVDGVEVHNAKTKPREEQFNSTFRVVSVLTVVHQDWLNGKEYKCKVSNKGLPAPIEKTISKTKGQPREPQVYTLPPSREEMTKNQVSLTCLVKGFYPSDIAVEWESNGQPENNYKTTPPMLDSDGSFFLYSKLTVDKSRWQQGNVFSCSVMHEALHNHYTQKSLSLSPGK
VL: not shown
notes: also called CR011.1.15.1; CR011 IgG2
Which “Geo Mean Ratio (relative to isotype)” value [1] does the source give for B1 here?
Its value is 8 ratio.

And the “Geo Mean Ratio (relative to isotype)” value [2]?
The value was 14.1 ratio.

What about the “Geo Mean Ratio (relative to isotype)” value [3] of the same binder?
Its value is 4.1 ratio.

And the “Geo Mean Ratio (relative to isotype)” value [4]?
The value was 5.5 ratio.

And the “Geo Mean Ratio (relative to isotype)” value [5]?
Its value is 6 ratio.

And the “Geo Mean Ratio (relative to isotype)” value [6]?
The value was 1.9 ratio.

And the “Geo Mean Ratio” value [7]?
Its value is 6.9 ratio.

And the “Geo Mean Ratio” value [8]?
Its value is 2.7 ratio.

What about the “CR011 Fold Shift (GMR)” value [9] of the same binder?
The value was 1.5 fold.

And the “Geo Mean Ratio” value [10]?
Its value is 12 ratio.

What about the “Geo Mean Ratio” value [11] of the same binder?
The value was 6.1 ratio.

And the “CR011 Fold Shift (GMR)” value [12]?
Its value is 1.6 fold.

What about the “CR011 Fold Shift (GMR)” value [13] of the same binder?
Its value is 2.3 fold.

And the “CR011 Fold Shift (GMR)” value [14]?
Its value is 1.1 fold.

What about the “Geo Mean Ratio” value [15] of the same binder?
Its value is 14.7 ratio.

What about the “Geo Mean Ratio” value [16] of the same binder?
Its value is 6.2 ratio.

What about the “Geo Mean Ratio” value [17] of the same binder?
Its value is 4.8 ratio.

What about the “CR011 Fold Shift (GMR)” value [18] of the same binder?
Its value is 7.4 fold.

What about the “Geo Mean Ratio” value [19] of the same binder?
Its value is 1.8 ratio.

And the “Geo Mean Ratio” value [20]?
The value was 1 ratio.

What about the “Geo Mean Ratio” value [21] of the same binder?
Its value is 4.8 ratio.

What about the “Geo Mean Ratio” value [22] of the same binder?
Its value is 1.8 ratio.

What about the “Geo Mean Ratio” value [23] of the same binder?
Its value is 10.7 ratio.

And the “surface staining, fold above isotype control mAb background” value [24]?
The value was no less than 1.5 fold.
